Results taken from patent publication US12514920B1, “Respiratory syncytial virus mRNA vaccine, and preparation method therefor and use thereof” (Hangzhou Tianlong Pharmaceutical Co., Ltd., priority 2024, dated 2026).

What was measured:
[1] = system: RSV pre-F antibody (3C12); assay: Binding of epitope Φ of RSV F antigen mutants by flow cytometry; conditions: for RSV pre-F antibody (3C12) Epitope Φ (%) binding rate: flow cytometry; for Φ/II (%): ratio of epitope Φ (3C12) to epitope II (11A9) binding rate
Description: (§1) To investigate whether the RSV F antigen mutants have pre-fusion epitopes, an RSV pre-F antibody (3C12) (specifically binding to the RSV pre-F epitope […]) and an RSV F antibody (11A9) (binding to pre-F and post-F epitopes II) were detected by flow cytometry in this example, and RSV F protein mutants in the pre-F conformation were expected to bind to the antibodies tested.
(§2) • 293T cells (purchased from ATCC cell bank); RSV pre-F antibody (3C12), epitope […] (Novoprotein, Cat. No.: DA101); RSV F antibody (11A9), epitope II (Novoprotein, Cat. No.: DA091); • experimental groups: mRNA vaccines corresponding to the expressed antigens in Example 3;
(§3) • (1) Cell transfection: 293T cells were seeded at 1.3×10^5 cells/well in a 24-well plate. The next day, mRNA-LNP samples (containing 300 ng of mRNA) were added directly to the cells, and the mixture was uniformly mixed. • (2) Cell collection: The cells were taken out of the incubator after 16 h of transfection, the medium was pipetted off, 500 μL of 0.1% BSA solution was pipetted to wash the medium remaining in the well plate, taking care not to resuspend the cells, and the 0.1% BSA solution was pipetted off. 500 μL of 0.1% BSA solution was added to each well, and the cells were pipetted and transferred to a 1.5 mL centrifuge tube. • (3) Centrifugation: The cells were harvested by centrifugation at 400 g for 5 min at 4° C. in the dark, and the supernatant was discarded. • (4) Straining: 50.6 μL of RSV fluorescent antibody diluent was added to each of the control sample and the test samples to resuspend the cells, and the samples were incubated at 4° C. for 2 h in the dark. • (5) Cleaning: After the incubation was completed, 500 μL of 0.1% BSA solution was added to each tube, the cells were harvested by centrifugation at 400 g for 5 min at 4° C. in the dark, and the supernatant was discarded. This operation was repeated three times. • (6) Resuspension of cells: 200 μL of 0.1% BSA solution was added to each sample, and the cells were carefully pipetted to prepare a cell suspension. • (7) Detection on flow cytometer: The […] of RSV F mutants to antibodies were measured using flow cytometry, with 1×10^4 cells detected in each measurement.
(§4) The RSV pre-F antibody (3C12) used in this example specifically binds to the RSV pre-F epitope Φ, and the RSV F antibody (11A9) binds to the pre-F and post-F epitopes II. Whether the pre-fusion conformations of the RSV F mutants are stable can be further determined by detecting the binding of the epitope Φ and the epitope II on the mutants to corresponding epitopes of antibodies 3C12 and 11A9, respectively, by flow cytometry.

RSV F antibody (11A9) = assay: Binding of epitope II of RSV F antigen mutants by flow cytometry; conditions: epitope II, antibody 11A9
Description: as §1, §2, §3, §4

[2] = system: RSV pre-F antibody (3C12); format: physicochemical; conditions: ELISA binding to 3C12; for Stress resistance parameter, Osmotic pressure (mM) 3000: high osmotic pressure 3000 mM; for Stress resistance parameter, Osmotic pressure (mM) 3000 / Stress resistance parameter, Osmotic pressure (mM) 10: room temperature; for Stress resistance parameter, Osmotic pressure (mM) 3000 / Stress resistance parameter, Osmotic pressure (mM) 10 / Stress resistance parameter, pH 3.5 / Stress resistance parameter, pH 10: 60 min; for Stress resistance parameter, Temperature (° C.) 50: incubation at 50° C. for 60 min; for Stress resistance parameter, Osmotic pressure (mM) 10: low osmotic pressure 10 mM; for Stress resistance parameter, pH 3.5: pH 3.5, room temperature; for Stress resistance parameter, pH 10: pH 10, room temperature; for Stress resistance parameter, Temperature (° C.) 4: storage at 4° C. for one week
Description: To investigate the stability of the RSV F antigen mutants under different pH, temperature, osmotic pressure and other conditions, the mutants were subjected to stress tests under different treatment conditions in this example.
• 293T cells (purchased from ATCC cell bank); • Primary antibody: RSV pre-F antibody (3C12), epitope Φ (purchased from Suzhou Novoprotein Scientific Co., Ltd. (hereinafter referred to as Novoprotein), Cat. No.: DA101); • Standard: RSV pre-F trimer protein (Novoprotein, Cat. No.: DRA230); • Secondary antibody: peroxidase AffiniPure goat anti-human IgG (H+L) (purchased from Yeasen Biotechnology (Shanghai) Co., Ltd. (hereinafter referred to as Yeasen), Cat. No.: N/A); • Experimental group: mRNA vaccines after screening in Example 4;
Coating: A 96-well microplate was coated with a working solution and incubated at 2 to 8° C. for 16 to 20 h.
Plate washing: Phosphate buffered saline PBST was added to each well, and the plate was washed 5 times using a plate washer and patted dry on absorbent paper.
Blocking: After a blocking solution was added, the […] were placed on a constant temperature microplate shaker and incubated at 400 rpm for 1.5 h at 37° C.
Plate washing: PBST was added to each well, and the plate was washed 5 times using a plate washer and patted dry on absorbent paper.
Primary antibody incubation: A primary antibody dilution was added to each well, and the plate was sealed with a sealing film, and then incubated at 400 rpm for 1.5 h at 37° C.
Secondary antibody incubation: A secondary antibody dilution was added to each well, and the plate was sealed with a sealing film, and then incubated at 400 rpm for 45 min at 37° C.
Color development: A chromogenic solution was added, and the plate was sealed with a sealing film, and then placed on a constant temperature microplate shaker and incubated at 400 rpm for 25 min at 37° C.
Reaction stopping: After the color development was completed, a stop buffer was added at […] to the microplate to stop the reaction.
Plate reading: Absorbance values (OD values) were read within 5 min using a multimode microplate reader, with dual wavelengths of 450 nm and 630 nm set.
In this example, stability screening of the mutants through different treatment conditions was defined as a stress test, including storage at 4° C. for one week; incubation at 50° C. for 60 min; treatment at room temperature under low osmotic pressure and high osmotic pressure conditions for 60 min; treatment at room temperature under acid and base conditions for 60 min. The binding of the mutants to the RSV pre-F antibody (3C12) recognizing the epitope Φ was detected by ELISA.

B1: YK-RSV-034 (protein)
chain: CNITEEFYQSTCSAVSKGYLGALRTGWYTSVITIELSNIKENKCNGTDAKVKLIKQELDKYKNAVTDLQLLMQSTPATGSGSAIASGVAVSKVLHLEGEVNKIKSALLSTNKAVVSLSNGVSVLTFKVLDLKNYIDKQLLPILNKQSCSIPNIETVIEFQQKNNRLLEITREFSVNAGVTTPVSTYMLTNSELLSLINDMPITNDQKKLMSNNVQIVRQQSYSIMSIIKEEVLAYVVQLPLYGVIDTPCWKLHTSPLCTTNTKEGSNICLTRTDRGWYCDNAGSVSFFPQAETCKVQSNRVFCDTMNSRTLPSEVNLCNVDIFNPKYDCKIMTSKTDVSSSVITSLGAIVSCYGKTKCTASNKNRGIIKTFSNGCDYVSNKGVDTVSVGNTLYYVNCQEGQSLYVKGEPIINFYDPLVFPSDEFDASISQVNEKINQSLAFIRKSDELLHNVNAGKSTTNIMITTIIIVIIVILLSLIAVGLLLY
**Q.** Which “RSV pre-F antibody (3C12) Epitope Φ (%) binding rate” value [1] does the source give for B1 here?
**A.** The value was 82.5%.

**Q.** What about the “Φ/II (%)” value [1] of the same molecule?
**A.** The value was 90.7%.

**Q.** What about the “RSV F antibody (11A9) Epitope II (%) binding rate” value (RSV F antibody (11A9)) of the same molecule?
**A.** The value was 91.0%.

**Q.** And the “Stress resistance parameter, Osmotic pressure (mM) 3000” value [2]?
**A.** Its value is 0.34 ± 0.15.

**Q.** What about the “Stress resistance parameter, Temperature (° C.) 50” value [2] of the same molecule?
**A.** The value was 0.68 ± 0.07.

**Q.** What about the “Stress resistance parameter, Osmotic pressure (mM) 10” value [2] of the same molecule?
**A.** The value was 0.84 ± 0.14.

**Q.** And the “Stress resistance parameter, pH 3.5” value [2]?
**A.** The value was 0.81 ± 0.09.

**Q.** What about the “Stress resistance parameter, pH 10” value [2] of the same molecule?
**A.** The value was 0.91 ± 0.04.

**Q.** What about the “Stress resistance parameter, Temperature (° C.) 4” value [2] of the same molecule?
**A.** Its value is 0.37 ± 0.07.

B2: YK-RSV-037 (protein)
chain: QNITEEFYQSTCSAVSKGYLGALRTGWCTSVITIELSNIKENKCNGTDAKVKLIKQELDKYKNAVTDLQLLMQSTPATGSGSAIASGVCVSKVLHLEGEVNKIKSALLSTNKAVVSLSNGVSVLTFKVLDLKNYIDKQLLPILNKQSCSIPNIETVIEFQQKNNRLLEITREFSVNAGVTTPVSTYMLTNSELLSLINDMPITNDQKKLMSNNVQIVRQQSYSIMSIIKEEVLAYVVQLPLYGVIDTPCWKLHTSPLCTTNTKEGSNICLTRTDRGWYCDNAGSVSFFPQAETCKVQSNRVFCDTMNSRTLPSEVNLCNVDIFNPKYDCKIMTSKTDVSSSVITSLGAIVSCYGKTKCTASNKNRGIIKTFSNGCDYVSNKGVDTVSVGNTLYYVNKQEGQSLYVKGEPIINFYDPLVFPSDEFDASISQVNEKINQSLAFIRKSDELLHNVNAGKSTTNIMITTIIIVIIVILLSLIAVGLLLY
**Q.** Which results are given for B2?
**A.** RSV pre-F antibody (3C12) Epitope Φ (%) binding rate [1]: 79.0%; Φ/II (%) [1]: 90.9%; RSV F antibody (11A9) Epitope II (%) binding rate (RSV F antibody (11A9)): 86.9%; Stress resistance parameter, Osmotic pressure (mM) 3000 [2]: 0.21 ± 0.03; Stress resistance parameter, Temperature (° C.) 50 [2]: 0.50 ± 0.06; Stress resistance parameter, Osmotic pressure (mM) 10 [2]: 0.54 ± 0.11; Stress resistance parameter, pH 3.5 [2]: 0.68 ± 0.10; Stress resistance parameter, pH 10 [2]: 1.24 ± 0.11; Stress resistance parameter, Temperature (° C.) 4 [2]: 0.27 ± 0.07

B3: YK-RSV-040 (protein)
chain: QNITEEFYQSTCSAVSKGYLGALRTGWYCSVITIELSNIKENKCNGTDAKVKLIKQELDKYKNAVTDLQLLMQSTPATGSGSAIASGVCVSKVLHLEGEVNKIKSALLSTNKAVVSLSNGVSVLTFKVLDLKNYIDKQLLPILNKQSCSIPNIETVIEFQQKNNRLLEITREFSVNAGVTTPVSTYMLTNSELLSLINDMPITNDQKKLMSNNVQIVRQQSYSIMSIIKEEVLAYVVQLPLYGVIDTPCWKLHTSPLCTTNTKEGSNICLTRTDRGWYCDNAGSVSFFPQAETCKVQSNRVFCDTMNSRTLPSEVNLCNVDIFNPKYDCKIMTSKTDVSSSVITSLGAIVSCYGKTKCTASNKNRGIIKTFSNGCDYVSNKGVDTVSVGNTLYYVNKQEGQSLYVKGEPIINFYDPLVFPSDEFDASISQVNEKINQSLAFIRKSDELLHNVNAGKSTTNIMITTIIIVIIVILLSLIAVGLLLY
**Q.** Which results are given for B3?
**A.** RSV pre-F antibody (3C12) Epitope Φ (%) binding rate [1]: 84.3%; Φ/II (%) [1]: 91.6%; RSV F antibody (11A9) Epitope II (%) binding rate (RSV F antibody (11A9)): 92.0%; Stress resistance parameter, Osmotic pressure (mM) 3000 [2]: 0.61 ± 0.09; Stress resistance parameter, Temperature (° C.) 50 [2]: 0.91 ± 0.14; Stress resistance parameter, Osmotic pressure (mM) 10 [2]: 0.75 ± 0.13; Stress resistance parameter, pH 3.5 [2]: 0.93 ± 0.09; Stress resistance parameter, pH 10 [2]: 1.00 ± 0.23; Stress resistance parameter, Temperature (° C.) 4 [2]: 0.38 ± 0.08

B4: YK-RSV-035 (protein)
chain: QCITEEFYQSTCSAVSKGYLGALRTGWYTSVITIELSNIKENKCNGTDAKVKLIKQELDKYKNAVTDLQLLMQSTPATGSGSAIASGVAVSKVLHLEGEVNKIKSALLSTNKAVVSLSNGVSVLTFKVLDLKNYIDKQLLPILNKQSCSIPNIETVIEFQQKNNRLLEITREFSVNAGVTTPVSTYMLTNSELLSLINDMPITNDQKKLMSNNVQIVRQQSYSIMSIIKEEVLAYVVQLPLYGVIDTPCWKLHTSPLCTTNTKEGSNICLTRTDRGWYCDNAGSVSFFPQAETCKVQSNRVFCDTMNSRTLPSEVNLCNVDIFNPKYDCKIMTSKTDVSSSVITSLGAIVSCYGKTKCTASNKNRGIIKTFSNGCDYVSNKGVDTVSVGNTLYYVNKCEGQSLYVKGEPIINFYDPLVFPSDEFDASISQVNEKINQSLAFIRKSDELLHNVNAGKSTTNIMITTIIIVIIVILLSLIAVGLLLY
**Q.** For B4, which “RSV pre-F antibody (3C12) Epitope Φ (%) binding rate” value [1] is on record?
**A.** Its value is 79.6%.

**Q.** And the “Φ/II (%)” value [1]?
**A.** The value was 91.4%.

**Q.** What about the “RSV F antibody (11A9) Epitope II (%) binding rate” value (RSV F antibody (11A9)) of the same molecule?
**A.** The value was 87.1%.

**Q.** And the “Stress resistance parameter, Osmotic pressure (mM) 3000” value [2]?
**A.** Its value is 0.21 ± 0.06.

**Q.** And the “Stress resistance parameter, Temperature (° C.) 50” value [2]?
**A.** Its value is 0.39 ± 0.02.

**Q.** And the “Stress resistance parameter, Osmotic pressure (mM) 10” value [2]?
**A.** Its value is 0.39 ± 0.05.

**Q.** What about the “Stress resistance parameter, pH 3.5” value [2] of the same molecule?
**A.** Its value is 0.57 ± 0.03.

**Q.** What about the “Stress resistance parameter, pH 10” value [2] of the same molecule?
**A.** The value was 0.82 ± 0.01.

**Q.** And the “Stress resistance parameter, Temperature (° C.) 4” value [2]?
**A.** The value was 0.31 ± 0.07.
